# Experimental data from US20240252635A1 (Genmab, published 2024).
# B1: IgG1-G28.1 (antibody)
# heavy: not shown
# light: DIQMTQSPASLSASVGETVTITCRTSENVYSYLAWYQQKQGKSPQLLVSFAKTLAEGVPSRFSGSGSGTQFSLKISSLQPEDSGSYFCQHHSDNPWTFGGGTELEIKRTVAAPSVFIFPPSDEQLKSGTASVVCLLNNFYPREAKVQWKVDNALQSGNSQESVTEQDSKDSTYSLSSTLTLSKADYEKHKVYACEVTHQGLSSPVTKSFNRGEC
# notes: IgG1,kappa
# B2: IgG1-G28.1-E430G (antibody)
# heavy: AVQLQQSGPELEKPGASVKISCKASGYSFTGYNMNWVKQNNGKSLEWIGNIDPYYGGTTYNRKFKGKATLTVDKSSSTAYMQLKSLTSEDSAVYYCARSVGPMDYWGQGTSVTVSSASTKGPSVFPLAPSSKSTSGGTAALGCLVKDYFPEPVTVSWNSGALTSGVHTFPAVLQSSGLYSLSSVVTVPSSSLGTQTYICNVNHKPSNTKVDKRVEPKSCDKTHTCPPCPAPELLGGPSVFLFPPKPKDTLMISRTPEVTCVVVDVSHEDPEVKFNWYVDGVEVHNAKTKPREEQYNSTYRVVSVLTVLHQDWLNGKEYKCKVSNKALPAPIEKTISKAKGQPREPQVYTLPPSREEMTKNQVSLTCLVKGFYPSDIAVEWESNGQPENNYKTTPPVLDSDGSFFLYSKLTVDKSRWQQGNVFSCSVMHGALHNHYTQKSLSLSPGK
# light: B1 light
# notes: IgG1,kappa with E430G
# B3: IgG1-004-H5L2-E430G (antibody)
# heavy: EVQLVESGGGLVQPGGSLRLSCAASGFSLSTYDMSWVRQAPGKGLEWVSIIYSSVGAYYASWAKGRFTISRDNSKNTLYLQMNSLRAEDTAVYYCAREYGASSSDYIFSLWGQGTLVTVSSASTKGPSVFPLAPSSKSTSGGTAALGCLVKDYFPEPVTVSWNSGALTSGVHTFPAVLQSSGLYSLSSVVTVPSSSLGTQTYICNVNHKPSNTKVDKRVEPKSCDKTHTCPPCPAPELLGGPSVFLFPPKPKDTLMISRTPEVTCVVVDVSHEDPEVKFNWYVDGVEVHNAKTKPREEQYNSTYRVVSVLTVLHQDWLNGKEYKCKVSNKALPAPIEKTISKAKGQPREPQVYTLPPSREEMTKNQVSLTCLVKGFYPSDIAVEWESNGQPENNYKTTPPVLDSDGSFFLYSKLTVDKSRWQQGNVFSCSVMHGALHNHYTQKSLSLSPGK
# light: AQVLTQSPSPLSASVGDRVTITCQASQSVYNSQNLAWYQQKPGKAPKLLIYEASKLASGVPSRFKGSGSGTEFTLTISSLQPDDFATYYCQGEFSCISADCTAFGGGTKVEIKRTVAAPSVFIFPPSDEQLKSGTASVVCLLNNFYPREAKVQWKVDNALQSGNSQESVTEQDSKDSTYSLSSTLTLSKADYEKHKVYACEVTHQGLSSPVTKSFNRGEC
# notes: IgG1,kappa with E430G (EU numbering)
# B4: IgG1-010-H5L2-E430G (antibody)
# heavy: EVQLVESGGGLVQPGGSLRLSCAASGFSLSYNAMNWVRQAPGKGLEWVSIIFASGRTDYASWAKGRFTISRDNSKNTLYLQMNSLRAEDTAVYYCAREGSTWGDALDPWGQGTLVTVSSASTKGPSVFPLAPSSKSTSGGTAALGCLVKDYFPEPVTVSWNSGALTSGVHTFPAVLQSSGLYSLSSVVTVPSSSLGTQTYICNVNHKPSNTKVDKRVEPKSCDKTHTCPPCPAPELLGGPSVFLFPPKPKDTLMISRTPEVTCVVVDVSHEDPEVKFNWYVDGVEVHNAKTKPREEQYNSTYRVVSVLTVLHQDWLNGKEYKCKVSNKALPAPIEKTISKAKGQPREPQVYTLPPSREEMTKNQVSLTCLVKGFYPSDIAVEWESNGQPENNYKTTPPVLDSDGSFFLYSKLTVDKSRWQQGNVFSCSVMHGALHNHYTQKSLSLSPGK
# light: AYDMTQSPSTLSASVGDRVTITCQASQNIIDYLAWYQQKPGKAPKLLIHKASTLASGVPSRFKGSGSGTEFTLTISSLQPDDFATYYCQQGYSNSNIDNTFGGGTKVEIKRTVAAPSVFIFPPSDEQLKSGTASVVCLLNNFYPREAKVQWKVDNALQSGNSQESVTEQDSKDSTYSLSSTLTLSKADYEKHKVYACEVTHQGLSSPVTKSFNRGEC
# notes: IgG1,kappa with E430G
# B5: IgG1-005-H1L2-E430G (antibody)
# heavy: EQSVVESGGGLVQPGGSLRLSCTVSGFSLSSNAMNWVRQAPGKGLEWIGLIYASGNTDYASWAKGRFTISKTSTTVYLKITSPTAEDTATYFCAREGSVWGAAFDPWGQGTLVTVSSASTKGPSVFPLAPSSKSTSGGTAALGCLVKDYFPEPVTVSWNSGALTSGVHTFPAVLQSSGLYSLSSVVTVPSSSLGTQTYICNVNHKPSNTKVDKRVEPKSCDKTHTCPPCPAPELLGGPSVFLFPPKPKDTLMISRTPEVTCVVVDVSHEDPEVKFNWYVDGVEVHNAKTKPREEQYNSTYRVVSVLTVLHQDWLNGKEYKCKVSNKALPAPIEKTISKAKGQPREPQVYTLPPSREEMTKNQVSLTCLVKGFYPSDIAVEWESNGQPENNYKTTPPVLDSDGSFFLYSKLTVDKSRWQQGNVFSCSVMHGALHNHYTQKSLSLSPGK
# light: AYDMTQSPSSVSASVGDRVTITCQASQSISNWLAWYQQKPGKAPKQLIYAASTLASGVPSRFKGSGSGTDFTLTISSLQPEDFATYYCQQGYSNSNIDNTFGGGTKVEIKRTVAAPSVFIFPPSDEQLKSGTASVVCLLNNFYPREAKVQWKVDNALQSGNSQESVTEQDSKDSTYSLSSTLTLSKADYEKHKVYACEVTHQGLSSPVTKSFNRGEC
# notes: IgG1,kappa with E430G
# B6: IgG1-016-H5L2-E430G (antibody)
# heavy: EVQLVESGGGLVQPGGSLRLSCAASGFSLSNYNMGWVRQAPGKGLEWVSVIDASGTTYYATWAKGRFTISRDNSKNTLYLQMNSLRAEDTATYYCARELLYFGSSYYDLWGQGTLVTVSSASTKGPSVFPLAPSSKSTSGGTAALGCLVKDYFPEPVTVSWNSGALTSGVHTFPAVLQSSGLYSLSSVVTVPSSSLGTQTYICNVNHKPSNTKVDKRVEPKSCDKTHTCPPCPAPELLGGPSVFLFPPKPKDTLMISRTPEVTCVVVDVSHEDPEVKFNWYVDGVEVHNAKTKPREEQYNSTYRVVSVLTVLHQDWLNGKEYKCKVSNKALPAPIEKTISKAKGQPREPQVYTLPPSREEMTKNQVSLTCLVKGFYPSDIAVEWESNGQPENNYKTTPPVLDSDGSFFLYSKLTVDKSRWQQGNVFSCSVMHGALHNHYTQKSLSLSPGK
# light: DVVMTQSPSTLSASVGDRVTITCQASQNIDSNLAWYQQKPGKAPKFLIYYASNLPFGVPSRFKGSGSGTEFTLTISSLQPDDFATYYCQCADVGSTYVAAFGGGTKVEIKRTVAAPSVFIFPPSDEQLKSGTASVVCLLNNFYPREAKVQWKVDNALQSGNSQESVTEQDSKDSTYSLSSTLTLSKADYEKHKVYACEVTHQGLSSPVTKSFNRGEC
# notes: IgG1,kappa with E430G
# B7: IgG1-004-H5L2 (antibody)
# heavy: not shown
# light: B3 light
# B8: IgG1-010-H5L2 (antibody)
# heavy: not shown
# light: B4 light
# notes: Humanized, IgG1,kappa
# B9: IgG1-005-H1L2 (antibody)
# heavy: not shown
# light: B5 light
# notes: Humanized, IgG1,kappa
# B10: IgG1-005-H1L2-K409R-E430G (antibody)
# heavy: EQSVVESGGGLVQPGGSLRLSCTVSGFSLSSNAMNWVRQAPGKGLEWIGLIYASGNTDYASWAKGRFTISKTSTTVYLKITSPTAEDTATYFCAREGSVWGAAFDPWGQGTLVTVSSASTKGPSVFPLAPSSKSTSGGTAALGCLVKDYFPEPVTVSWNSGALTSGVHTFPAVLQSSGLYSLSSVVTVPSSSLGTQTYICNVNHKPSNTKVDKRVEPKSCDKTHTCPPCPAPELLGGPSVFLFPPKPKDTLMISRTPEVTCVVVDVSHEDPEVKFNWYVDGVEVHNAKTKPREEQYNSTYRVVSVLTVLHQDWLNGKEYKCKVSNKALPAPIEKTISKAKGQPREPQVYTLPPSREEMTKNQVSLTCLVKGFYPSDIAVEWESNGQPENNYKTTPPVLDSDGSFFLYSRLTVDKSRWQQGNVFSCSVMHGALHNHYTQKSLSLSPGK
# light: B5 light
# notes: IgG1,kappa with K409R and E430G
# B11: IgG1-016-H5L2-LC90S-F405L-E430G (antibody, V domains shown)
# VH: EVQLVESGGGLVQPGGSLRLSCAASGFSLSNYNMGWVRQAPGKGLEWVSVIDASGTTYYATWAKGRFTISRDNSKNTLYLQMNSLRAEDTATYYCARELLYFGSSYYDLWGQGTLVTVSS
# VL: DVVMTQSPSTLSASVGDRVTITCQASQNIDSNLAWYQQKPGKAPKFLIYYASNLPFGVPSRFKGSGSGTEFTLTISSLQPDDFATYYCQSADVGSTYVAAFGGGTKVEIKR
# notes: light chain carries C90S; also called D1; IgG1-3009-016-H5L2-F405L-E430G-LC90S
# B12: IgG1-016-H5L2 (antibody)
# heavy: not shown
# light: B6 light
# notes: Humanized, IgG1,kappa
# B13: IgG1-016-H5L2-F405L-E430G (antibody)
# heavy: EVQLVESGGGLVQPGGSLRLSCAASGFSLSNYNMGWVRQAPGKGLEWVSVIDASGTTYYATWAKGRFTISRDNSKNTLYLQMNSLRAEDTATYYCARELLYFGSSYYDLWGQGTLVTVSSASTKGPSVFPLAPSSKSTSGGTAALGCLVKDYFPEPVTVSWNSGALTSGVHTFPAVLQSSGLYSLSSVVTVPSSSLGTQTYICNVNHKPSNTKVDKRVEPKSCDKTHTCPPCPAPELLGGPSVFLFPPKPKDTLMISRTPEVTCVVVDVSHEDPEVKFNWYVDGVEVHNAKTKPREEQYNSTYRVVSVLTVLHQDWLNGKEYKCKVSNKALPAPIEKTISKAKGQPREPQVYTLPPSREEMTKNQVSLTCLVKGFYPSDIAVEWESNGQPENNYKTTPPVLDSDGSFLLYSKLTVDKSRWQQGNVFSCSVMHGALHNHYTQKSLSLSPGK
# light: B6 light
# notes: IgG1,kappa with F405L and E430G
# B14: IgG1-37.3 (antibody)
# heavy: not shown
# light: DIQMTQSPASLSVSVGETVTITCRASENIRSNLAWYQQKQGKSPQLLVNVATNLADGVPSRFSGSGSGTQYSLKINSLQSEDFGTYYCQHYWGTTWTFGGGTKLEIKRTVAAPSVFIFPPSDEQLKSGTASVVCLLNNFYPREAKVQWKVDNALQSGNSQESVTEQDSKDSTYSLSSTLTLSKADYEKHKVYACEVTHQGLSSPVTKSFNRGEC
# notes: IgG1,kappa
# B15: IgG1-37.3-E430G (antibody)
# heavy: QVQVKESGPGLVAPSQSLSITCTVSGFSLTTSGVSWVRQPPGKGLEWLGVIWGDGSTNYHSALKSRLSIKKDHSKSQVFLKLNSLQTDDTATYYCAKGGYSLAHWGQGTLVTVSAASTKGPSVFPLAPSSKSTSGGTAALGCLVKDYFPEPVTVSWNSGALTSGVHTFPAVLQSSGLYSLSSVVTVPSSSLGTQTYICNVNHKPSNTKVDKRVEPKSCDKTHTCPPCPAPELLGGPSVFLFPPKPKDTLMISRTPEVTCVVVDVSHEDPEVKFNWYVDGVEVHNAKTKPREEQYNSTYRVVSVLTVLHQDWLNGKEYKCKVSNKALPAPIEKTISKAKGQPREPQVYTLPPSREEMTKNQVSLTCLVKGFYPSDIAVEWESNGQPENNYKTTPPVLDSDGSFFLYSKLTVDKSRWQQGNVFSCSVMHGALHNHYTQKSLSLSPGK
# light: B14 light
# notes: IgG1,kappa with E430G
# Molecular target: T1, cynomolgus monkey CD37 (cynomolgus monkey (Macaca fascicularis), UniProt P11049 1-281 (human entry))
# T1 construct: also called mfCD37; cynomolgus CD37
# T1 chain: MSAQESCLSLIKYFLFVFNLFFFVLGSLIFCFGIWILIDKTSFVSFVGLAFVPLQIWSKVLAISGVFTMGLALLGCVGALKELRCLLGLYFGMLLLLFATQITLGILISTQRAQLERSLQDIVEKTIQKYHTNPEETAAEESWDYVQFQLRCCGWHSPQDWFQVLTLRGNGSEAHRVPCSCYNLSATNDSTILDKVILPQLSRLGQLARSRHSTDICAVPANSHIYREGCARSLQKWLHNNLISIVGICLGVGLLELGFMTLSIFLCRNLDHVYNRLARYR
# Test: flow cytometry on CHO cells expressing cynomolgus monkey CD37
# Protocol: (§1) Binding to cell surface expressed CD37 (Daudi cells, CHO cells expressing cynomolgus CD37) was determined by flow cytometry. Cells, resuspended in RPMI containing 0.2% BSA, were seeded at 100,000 cells/well in polystyrene 96 well round-bottom plates (Greiner bio-one Cat #650101) and centrifuged for 3 minutes at 300×g, 4° C. Serial dilutions (0.003-10 μg/mL final antibody concentration in 3.33× serial dilutions) of CD37 or control antibodies were added and cells were incubated for 30 minutes at 4° C. Plates were washed/centrifuged twice using FACS buffer (PBS/0.1% BSA/0.01% Na-Azide). Next, cells were incubated for 30 minutes at 4° C. with R-Phycoerythrin (PE)-conjugated goat-anti-human IgG F(ab′)2 (Jackson ImmunoResearch Laboratories, Inc., West Grove, PA; cat #: 109-116-098) diluted 1/100 in PBS/0.1% BSA/0.01% Na-Azide. Cells were washed/centrifuged twice using FACS buffer, resuspended in 30 μL FACS buffer and analyzed by determining mean fluorescent intensities using an Intellicyt iQue™ screener (Westburg). Binding curves were generated using non-linear regression (sigmoidal dose-response with variable slope) analyses within GraphPad Prism V6.04 software (GraphPad Software, Sand Diego, CA, USA).
# Binding to CHO cells expressing cynomolgus monkey CD37 was determined by flow cytometry using a method as described above.
row,Binder,binding result
1,B1,no binding (tested: 0.003-10 µg/mL)
2,B2,no binding (tested: 0.003-10 µg/mL)
3,B3,binds
4,B4,binds
5,B5,binds
6,B6,binds

# Molecular target: T2, human CD37 (human (Homo sapiens), UniProt P11049 1-281)
# T2 construct: Endogenous on Daudi cells, Raji cells and human blood B cells; also called Leukocyte Antigen CD37; GP52-40
# T2 sequence: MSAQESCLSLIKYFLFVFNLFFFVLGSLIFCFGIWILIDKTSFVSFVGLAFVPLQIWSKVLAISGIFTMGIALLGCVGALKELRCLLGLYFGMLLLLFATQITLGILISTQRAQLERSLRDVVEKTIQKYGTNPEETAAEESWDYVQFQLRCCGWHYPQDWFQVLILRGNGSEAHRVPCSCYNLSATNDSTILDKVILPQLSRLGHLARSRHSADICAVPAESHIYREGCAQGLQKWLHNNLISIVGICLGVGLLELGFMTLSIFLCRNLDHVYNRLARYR
# Test: flow cytometry on Daudi cells
# Protocol: as §1
row,Binder,binding result
1,B1,binds
2,B2,binds
3,B7,binds
4,B3,binds
5,B8,binds
6,B4,binds
7,B5,binds
8,B9,binds
9,B10,binds
10,B6,binds
11,B11,binds
12,B12,binds
13,B13,binds
14,B14,binds
15,B15,binds
